Measured values from the supplement of paper PMC7877785.
± gives the uncertainty stated by the source.

Test: self-splicing fitness, log relative to wild type (ln ratio); higher = more splicing; Tetrahymena group I intron in knt gene, E. coli kanamycin selection, DiMSum; sequences stand for … in CUCUCU…GGAGGGAAAAGUUAUCAGGCAUGCACCUGGUAGCUAGUCUUUAAACCAAUAGAUUGCAUCGGUUUAAAAGGCAAGACCGUCAAAUUGCGGGAAAGGGGUCAACAGCCGUUCAGUACCAAGUCUCAGGGGAAACUUUGAGAUGGCCUUGCAAAGGGUAUGGUAAUAAGCUGACGGACAUGGUCCUAACCACGCAGCCAAGUCCUAAGUCAACAGAUCUUCUGUUGAUAUGGAUGCAGUUCACAGACUAAAUGUCGGUCGGGGAAGAUGUAUUCUUCUCAUAAGAUAUAGUCGGACCUCUCCUUAAUGGGAGCUAGCGGAUGAAGUGAUGCAACACUGGAGCCGCUGGGAACUAAUUUGUAUGCGAAAGUAUAUUGAUUAGUUUUGGAGUACUCGUGGUCG
How it was run: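 The eight P1ex-region nucleotides of an intron in the knt kanamycin-resistance gene on pET-22b(+) were all randomised and the library put into E. coli BL21(DE3). Six replicate transformations were grown overnight at 37°C or 30°C on LB agar with or without 25 μg/mL kanamycin, together with 100 μg/mL carbenicillin, 50 μM IPTG and 0.2% rhamnose. Colonies were pooled and amplicon-sequenced on an Illumina HiSeq 2500. Fitness from DiMSum is the error-weighted combination of wild-type-normalised replicate fold changes, kanamycin over none.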

Sequence	self-splicing fitness (ln) (30 °C)	self-splicing fitness (ln) (37 °C)
AAAAAGCAAUAUUACGACAU	0.00477 ± 0.011	0.11 ± 0.032
AAAAAGCAAUAUUACGACUC	0.0755 ± 0.088	0.373 ± 0.11
AAAAAGCAAUAUUACGACUG	-1.14 ± 0.098	-0.0274 ± 0.11
AAAAAGCAAUAUUACGAGAU	-2.85 ± 0.13	-1.86 ± 0.2
AAAAAGCAAUAUUACGAGGC	-4.09 ± 0.33	-2.57 ± 0.32
AAAAAGCAAUAUUACGAGUU	-1.33 ± 0.065	-0.488 ± 0.07
AAAAAGCAAUAUUACGAUAC	-2.28 ± 0.16	-0.696 ± 0.13
AAAAAGCAAUAUUACGCAUA	-1.5 ± 0.11	-0.715 ± 0.1
AAAAAGCAAUAUUACGCCGC	-2.19 ± 0.43	-2.01 ± 0.33
AAAAAGCAAUAUUACGCGUA	-1.61 ± 0.083	-0.153 ± 0.08
AAAAAGCAAUAUUACGCUUU	-4.64 ± 0.27	-2.32 ± 0.19
AAAAAGCAAUAUUACGGCCU	-0.199 ± 0.069	0.253 ± 0.095
AAAAAGCAAUAUUACGUACU	0.142 ± 0.054	0.151 ± 0.077
AAAAAGCAAUAUUACGUAGG	-1.7 ± 0.093	-1.66 ± 0.11
AAAAAGCAAUAUUACGUCAG	-2.75 ± 0.15	-1.14 ± 0.13
AAAAAGCAAUAUUACGUGGA	-2.42 ± 0.1	-1.86 ± 0.1
AAAAAGCAAUAUUACGUGGC	-3.59 ± 0.21	-1.59 ± 0.14
AAAAAGCAAUAUUACGUUCG	-0.479 ± 0.078	-1.04 ± 0.1
AAAAAGCAAUAUUACGUUGU	-3.71 ± 0.15	-2.01 ± 0.14
AAACAGCAAUAUUACGAAAA	-2.95 ± 0.15	-1.8 ± 0.14
AAACAGCAAUAUUACGAAUC	-4.43 ± 0.46	-1.54 ± 0.22
AAACAGCAAUAUUACGACGA	-1.32 ± 0.096	0.0122 ± 0.099
AAACAGCAAUAUUACGACGC	-1.43 ± 0.081	-0.718 ± 0.096
AAACAGCAAUAUUACGAGGA	-4 ± 0.26	-1.97 ± 0.13
AAACAGCAAUAUUACGAGUG	-2.71 ± 0.075	-1.8 ± 0.074
AAACAGCAAUAUUACGAUAG	-2.76 ± 0.1	-2.14 ± 0.12

Sequence	self-splicing fitness (ln) (30 °C)	self-splicing fitness (ln) (37 °C)
AAACAGCAAUAUUACGAUUU	-0.279 ± 0.053	0.219 ± 0.071
AAACAGCAAUAUUACGCAAC	-3.6 ± 0.29	-1.93 ± 0.17
AAACAGCAAUAUUACGCACU	-0.221 ± 0.079	0.0967 ± 0.091
AAACAGCAAUAUUACGCAGU	-3.42 ± 0.15	-1.44 ± 0.12
AAACAGCAAUAUUACGCGCA	-0.282 ± 0.081	-0.19 ± 0.087
AAACAGCAAUAUUACGCGCC	-1.13 ± 0.1	-0.456 ± 0.12
AAACAGCAAUAUUACGGACU	-0.635 ± 0.097	-0.406 ± 0.12
AAACAGCAAUAUUACGGGAG	-3.34 ± 0.13	-2.66 ± 0.14
AAACAGCAAUAUUACGGUAC	-3.52 ± 0.2	-2.75 ± 0.26
AAACAGCAAUAUUACGUACG	-2.54 ± 0.11	-0.985 ± 0.11
AAACAGCAAUAUUACGUAUG	-2.03 ± 0.094	-1.31 ± 0.11
AAACAGCAAUAUUACGUCAC	-4.1 ± 0.23	-2.59 ± 0.2
AAACAGCAAUAUUACGUGAG	-0.858 ± 0.04	-0.552 ± 0.064
AAAGAGCAAUAUUACGAAUA	-1.42 ± 0.35	
AAAGAGCAAUAUUACGAAUC	-3.27 ± 0.24	-2.7 ± 0.26
AAAGAGCAAUAUUACGACAA	-2.27 ± 0.23	-2.95 ± 0.38
AAAGAGCAAUAUUACGACGG	-3.27 ± 0.29	-2.83 ± 0.43
AAAGAGCAAUAUUACGACUG	-3 ± 0.32	
AAAGAGCAAUAUUACGAGGG	-3.04 ± 0.27	-2.34 ± 0.39
AAAGAGCAAUAUUACGAUCG	-2.55 ± 0.12	-1.29 ± 0.15
AAAGAGCAAUAUUACGCCGU	-3.07 ± 0.48	-1.74 ± 0.42
AAAGAGCAAUAUUACGCGUG	-3.02 ± 0.14	-1.79 ± 0.12
AAAGAGCAAUAUUACGGAAU	-2.79 ± 0.19	-2.57 ± 0.27
AAAGAGCAAUAUUACGGAGC	-2.8 ± 0.39	
AAAGAGCAAUAUUACGGAUA	-2.75 ± 0.27	-1.92 ± 0.3
AAAGAGCAAUAUUACGGAUU	-0.754 ± 0.18	-1.45 ± 0.17

Sequence	self-splicing fitness (ln) (30 °C)	self-splicing fitness (ln) (37 °C)
AAAGAGCAAUAUUACGGCAG	-4.02 ± 0.42	-3.07 ± 0.29
AAAGAGCAAUAUUACGGCCU	-2.16 ± 0.13	-0.199 ± 0.13
AAAGAGCAAUAUUACGGGGA	-2.48 ± 0.35	-1.81 ± 0.28
AAAGAGCAAUAUUACGUAAU	-2.16 ± 0.15	0.0244 ± 0.13
AAAGAGCAAUAUUACGUCCA	-1.76 ± 0.33	-1.93 ± 0.36
AAAGAGCAAUAUUACGUCUC	-3.18 ± 0.29	-1.47 ± 0.18
AAAGAGCAAUAUUACGUGAC	-4.21 ± 0.21	-2.62 ± 0.2
AAAGAGCAAUAUUACGUGCA	-2.3 ± 0.14	-1.19 ± 0.13
AAAGAGCAAUAUUACGUUAG	-3.49 ± 0.15	-3.11 ± 0.25
AAAGAGCAAUAUUACGUUAU	-3.71 ± 0.25	-2.49 ± 0.23
AAAUAGCAAUAUUACGAAAA	-2.66 ± 0.35	-1.47 ± 0.22
AAAUAGCAAUAUUACGAACA	-0.981 ± 0.14	-0.0486 ± 0.12
AAAUAGCAAUAUUACGAAUC	-2.64 ± 0.18	-2.29 ± 0.22
AAAUAGCAAUAUUACGAGUG	-2.42 ± 0.12	-0.435 ± 0.1
AAAUAGCAAUAUUACGAUAC	-2.95 ± 0.22	-2.64 ± 0.36
AAAUAGCAAUAUUACGCAAC	-3.16 ± 0.37	-1.53 ± 0.26
AAAUAGCAAUAUUACGCCUA	-0.886 ± 0.13	-0.23 ± 0.13
AAAUAGCAAUAUUACGCGAU	-3.4 ± 0.2	-1.47 ± 0.14
AAAUAGCAAUAUUACGCGCU	-0.381 ± 0.15	-0.606 ± 0.19
AAAUAGCAAUAUUACGCGUU	-2.16 ± 0.087	-1.22 ± 0.092
AAAUAGCAAUAUUACGCUAC		-1.68 ± 0.3
AAAUAGCAAUAUUACGCUAG	-1.55 ± 0.13	-1 ± 0.15
AAAUAGCAAUAUUACGGAGG	-3.39 ± 0.2	-2.86 ± 0.26
AAAUAGCAAUAUUACGGGCC	-2.49 ± 0.32	-2.55 ± 0.41
